Where a chain is given by its changes, count along the chain named.
T1: human CD19 expressed on LO68 tumor cells (human, UniProt P15391 20-556)
T1 construct: whole, on cells; also called CD19+ LO68 tumor cells; CD19-engineered LO68 tumor cells
T1 sequence (looked up): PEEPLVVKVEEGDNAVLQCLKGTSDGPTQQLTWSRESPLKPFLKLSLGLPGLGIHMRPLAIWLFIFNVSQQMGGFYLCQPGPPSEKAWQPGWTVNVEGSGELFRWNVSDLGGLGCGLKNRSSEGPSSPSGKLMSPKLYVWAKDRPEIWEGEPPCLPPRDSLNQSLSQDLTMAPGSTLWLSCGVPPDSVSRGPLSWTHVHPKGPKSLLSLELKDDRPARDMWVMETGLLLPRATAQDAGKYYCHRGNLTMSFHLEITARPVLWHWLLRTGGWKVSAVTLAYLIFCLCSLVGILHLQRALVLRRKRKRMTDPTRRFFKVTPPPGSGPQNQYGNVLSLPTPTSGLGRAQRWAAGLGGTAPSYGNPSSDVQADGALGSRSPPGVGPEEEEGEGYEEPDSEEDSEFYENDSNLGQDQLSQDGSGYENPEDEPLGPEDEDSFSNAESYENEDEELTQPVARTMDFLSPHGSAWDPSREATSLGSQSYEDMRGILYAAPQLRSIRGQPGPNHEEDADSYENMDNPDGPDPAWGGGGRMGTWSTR

B1: G02 second generation CAR (F-2 with the second glycine of FMC63 VH CDR3 substituted by alanine), expressed on human T cells (other)
chain: DIQMTQTTSSLSASLGDRVTISCRASQDISKYLNWYQQKPDGTVKLLIYHTSRLHSGVPSRFSGSGSGTDYSLTISNLEQEDIATYFCQQGNTLPYTFGGGTKLEITGGGGSGGGGSGGGGSEVKLQESGPGLVAPSQSLSVTCTVSGVSLPDYGVSWIRQPPRKGLEWLGVIWGSETTYYNSALKSRLTIIKDNSKSQVFLKMNSLQTDDTAIYYCAKHYYYGASYAMDYWGQGTSVTVSSAAAIEVEQKLISEEDLLDNEKSNGTIIHVKGKHLCPSPLFPGPSKPFWVLVVVGGVLACYSLLVTVAFIIFWVRSKRSRLLHSDYMNMTPRRPGPTRKHYQPYAPPRDFAAYRSRVKFSRSADAPAYQQGQNQLYNELNLGRREEYDVLDKRRGRDPEMGGKPRRKNPQEGLYNELQKDKMAEAYSEIGMKGERRRGKGHDGLYQGLSTATKDTYDALHMQALPPR
notes: CAR on transduced human T cells; also called FMC63(G02)
B2: Y03 second generation CAR (F-2 with the third tyrosine of FMC63 VH CDR3 substituted by alanine), expressed on human T cells (other)
chain: B1 chain with Y223A, A225G
notes: CAR on transduced human T cells; also called FMC63(Y03)
B3: Y04 second generation CAR (F-2 with the fourth tyrosine of FMC63 VH CDR3 substituted by alanine), expressed on human T cells (other)
chain: B1 chain with A225G, Y227A
notes: CAR on transduced human T cells; also called FMC63(Y04)
B4: Y01 second generation CAR (F-2 with the first tyrosine of FMC63 VH CDR3 substituted by alanine), expressed on human T cells (other)
chain: B1 chain with Y221A, A225G
notes: CAR on transduced human T cells; also called FMC63(Y01)

Molecular target: T1, human CD19 expressed on LO68 tumor cells
Test: z-Movi microfluidic chip, CAR T cells on a monolayer of CD19+ LO68 tumor cells, force ramp, percent bound T cells
Protocol: CD19-engineered LO68 tumor cells were seeded in a z-Movi microfluidic chip and cultured for 16 hours. The next day, flow sorted CAR-T cells were serially flowed in the chips and incubated with the target cells for 5 minutes prior to initializing a 3-minute linear force ramp. Cell detachment was determined using post-experiment using image analysis techniques.
Increasing fluidic force was applied and the percentage of bound T-cells was determined (median, n=3). […] Data are presented as median rForce which is the relative force required to elicit cell detachment, calibrated to […] polystyrene beads. Since data were not normally distributed, they are presented as median rForce which is the relative force required to elicit cell detachment and calibrated to […] polystyrene beads. […] Data shown are mean±standard error (n=11 runs, 3 independent donors). […] For clarity, a single representative run for one healthy donor is plotted in which each dot represents a single cell.

binding result	Binder
binds	B1
binds	B2
binds	B3
binds	B4

Source: patent US20220298223A1 (KING S COLLEGE LONDON, published 2022)
